# Reference: article PMC6908968 (Cell, 2019)
# Where a chain is given by its changes, count along the chain named.
# T1: thermolysin-cleaved EBOV GP on Jurkat-GP cells (cleaved GP) (Zaire ebolavirus, Makona (GP1 core …, strain))
# T1 chain 1: not shown
# T1 chain 2: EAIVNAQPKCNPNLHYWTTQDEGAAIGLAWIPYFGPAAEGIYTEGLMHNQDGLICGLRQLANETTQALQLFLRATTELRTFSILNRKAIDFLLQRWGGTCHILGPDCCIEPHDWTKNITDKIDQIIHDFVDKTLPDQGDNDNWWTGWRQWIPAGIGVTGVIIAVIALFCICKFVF
# B1: 5.6.c3225 (antibody, V domains shown)
# VH: EVQLVESGGGLVKPGGSLRLSCAASGFTFSSYTMNWVRQAPGKGLEWVSFISSTSRYIHYADSVKGRFTISRDNAKNSLFLQINSLRDEDTAVYFCARESVDDTSMLYYGLDVWGQGTTVTVSS
# VL: DIQMTQSPSSLSASVGGRVTITCRASQSISSSLSWYQQKPGKAPKFLIYGASTLESGVPSRFSGSGSGTDFTLTISSLQPEDFATYFCQQSHSLPWTFGQGTKVEIK
# B2: 5.6.c3168 (antibody, V domains shown)
# VH: EVQLVESGGGLVQPGGSLRLSCAASGFTLSNYDMNWVRQAPGKRLEWVSYISSSGSTTYYVDSVKGRFTISRDNAKNSLYLQMNSLRAEDTAVYYCARGHNNWFLYFDSWGQGTLVTVSS
# VL: EILMTQSPATLSVSPGERATLSCRASQSVSSNLAWYQQVPGQAPRLLISDASTRATGIPARFSGSGSGTEFTLTINSLQSEDFAVYYCQQYNDWPGTFGQGTKLEIK
# B3: 5.6.c3151 (antibody, V domains shown)
# VH: EVQLVESGGGVVQPGGSLRLSCAASGFDFDDYPMNWVRQAPGKGLELVFLISGDGGSTYSADSVKGRFTISRDNSKNSLYLQMNSLRTEDTALYYCAKDAVDNSGLYYYGMDVWGQGTTVIVSS
# VL: DIQMTQSPSSVSASVGDRVTINCRASQGISGWLAWYQQKPGKAPKLLIYAASSLQSGVPSRFSGSGSGTDFTLAISSLQPEDLATYYCQQTHSFPFTFGPGTKVGIK
# B4: 5.6.c3479 (antibody, V domains shown)
# VH: QVHLVESGGGLVKPGGSLRLSCSVSGFAFSDYYMTWIRQAPGKGLEWVSYISGDGGSIYYADSVKGRFTISRDNAKKSLYLQLNSLRADDTAVYYCARDRCDRDQLLCYYYYGMDVWGQGTTVTVSS
# VL: QSVLTQPPSVSAAPGQKVTISCSGSSSNIGNNYVSWYQQLPGTAPKLLIYDNNKRPSGIPDRFSGSKSGTSATLDITGLQTGDEADYYCGTWDNSLIAGVFGGGTKLTVL
# B5: 5.6.c3397 (antibody, V domains shown)
# VH: QVQLQESGPGLVKPSETLSLTCTVSGGSISTYYWSWIRQTPGKGLECIGYINYFGSTNYNPSLKSRVTISIDTSKNQFSLKLSSVTAADTAVYYCARHYGVGTYSGGWFDPWGQGTLVTVSS
# VL: DIQMTQSPSSLSASVGDRVTVTCRASQRINSFLNWYQQKPGKAPKLLIYAASSLQSGVPSRFSGTGSGTDFTLTISSLQPEDFATYYCQQSYSSPRTFGQGTKVEIR
# B6: 5.6.c3191 (antibody, V domains shown)
# VH: QVQLAQSGAEVKKPGASVKVSCKSSGYNFTTHGFNWVRQVPGQGLEWMGWISAYNADTNYAQKFQGRLTLTTETSSNTAYMELRSLTSDDTAVYYCARGEEYSTLYFYGMDVWGQGTTVTVSS
# VL: DIQMTQSPSSVSASVGDRVTITCRASQGISIWLAWYQQKPGKAPKLLIYGASTLQSGVPSRFSGSGSGADYTLTINSLQPEDFATYFCQQAHSFPYTFGQGTKLEIR
# B7: 5.6.c3250 (antibody, V domains shown)
# VH: QVQLVESGGGLVKPGGSLRLSCAASGFTFSDYDMSWIRQAPGKGLEWISYISSSGTTIYDADSVKGRFTISRDNAKNSLSLQVNSLRAEDTAVYYCARNVEQIVGATLDYWGQGTLVTVSS
# VL: EIVLTQSPATLSLSPGERATLSCRASQSISSFLAWYQQKLGQAPRLLIFDASNRATGIPARFSGSGSGTDFTLTISSLEPEDFAVYYCHHWTFGQGTKVEIK
# B8: 5.6.c3236 (antibody, V domains shown)
# VH: QVQLLESGPGLVKPSETLSLTCAVSGGSVSSNTHFWSWIRQPPGKGLEWIGYTLSSGSTAYNPSLKSRVSLSVDTSKNHFSLKLTSVTAADTAVYYCAGTVIQGVVSFDWFDPWGQGTLVTVSS
# VL: DIQMTQSPSSLSASVGDRVTITCRASQSINSYLNWYQQRPGKAPKLLIYTTSNLQSGVPSRFSGSGSGTDFTLTISSLQPEDFATYYCQQSYSTPLTFGGGTKVEIK
# B9: 5.6.c3507 (antibody, V domains shown)
# VH: EVQLVESGGGVVQPGGSLRLSCAASGFTFDDYGMHWVRQAPGKGLEWVSFISGDGYSTYYGDSVKGRFTISRDKSKNSLYLQMNSLRTEDTAFYYCAKDGGSTLTTLLYNWFDSWGQGTLVTVSS
# VL: B8 VL with S31M, R39K, L46V, T50G, T51A, N53S, T94I, L96V, G100P, E105D
# B10: 5.6.c3206 (antibody, V domains shown)
# VH: QVQLKESGPGLVKPSQTLSLTCSVSGGAISNGGYCYTWIRQRPGKGLESIGYMHYSGSPYYNPSLKSRVTIYVDTSKNQFSLKLSSVTAADTAVYYCARGLLWFGESPFYYFDYWGQGTLVTVSS
# VL: QSVLTQPPSVSGAPGQRVTISCTGSSSNIGAGYDVHWYQQLPGTAPKLLIYGNSNRPSGVPDRFSGSKSGTSASLAITGLQAEDEADYYCQSCDSSLSVVFGGGTKLTVL
# B11: 5.6.c3113 (antibody, V domains shown)
# VH: EVQMVESGGGLAQPGGSLRLSCAASGFTFSSYEMSWVRQAPGKGLEWVSYISTSGNTIYYADSVKGRFTISRDNAKNSLYLQMNNLRAEDTAFYYCAANHGDNLFWYFDLWGRGTLVTVSS
# VL: DIQLIQSPSFLSASVGDRVTITCRASQGISSYLAWYQQKLGKAPKLLMYAASTLQSGVPSRFSGSGSGTEFTLTISSLQPEDFATYYCQQLNGYPPTFGQGTKLEIK
# B12: 5.6.c3133 (antibody, V domains shown)
# VH: QVQLVQSGAEVKKPGSSVKVSCKTSGGTLSTYPFSWVRQAPGQGLEWMGGIIPFFGTTNYAQKFQGRLTMTADKSTNTVYMELGSLRSEDTAVYYCAREHGDDIYYYFAMDVWGQGTTVTVSS
# VL: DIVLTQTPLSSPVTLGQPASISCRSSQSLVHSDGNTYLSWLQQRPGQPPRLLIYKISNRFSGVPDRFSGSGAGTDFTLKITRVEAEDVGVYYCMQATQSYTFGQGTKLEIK
# B13: 5.6.c3221 (antibody, V domains shown)
# VH: QEELVESGGGVVQPGRSLRLSCAASTFTFSIYAMHWVRQAPGKGLEWVAVISYDGSNRYYADSVKGRFTISRDNSKNTVYLQMNSLRAEDTAVYFCAKDLGSNGWYYFDSWGQGTLVTVSS
# VL: EIVLTQSPGTLSLSPGERATLSCRASQSVSSRYLAWYQQKPGQAPRLLIYGVSSRATGVPDRFSGSGSGTDFTLTISRLEPEDFAVYYCQHYGSSPWRPFGQGTKLEIK
# B14: 5.6.c3508 (antibody, V domains shown)
# VH: QVQLEQSGAEVKKPGASVKVSCQAAGYTFTSYGISWVRQAPGQGLEWMGWISADNGNTKYAQNLQARVTMTTDTSTSTAYMEVRRLRSDDTAVYYCARDSGDLSSLLYYGMDVWGQGTTVTVSS
# VL: DIQLTQSPSFLSASVGDRVTITCRASQGISSYLAWYQQKPGKAPKLLIDAASTLQSGVPSRISGSRSGTEYTLTISSLQPEDFATYYCQQLNNFPFTFGPGTKVDIK
# B15: 5.6.c3197 (antibody, V domains shown)
# VH: QVQVVESGGGVVQPGKSLRLSCAASGFTFSSYGMHWVRQAPGKGLEWVAFIAYDGSNEYYADSVKGRFTISRDNSKITLYLQMNSLRAEDTAMYYCAKEGAGHDALYYYGMDVWGQGTTVTVSS
# VL: DIQMTQSPSSVSASVGDRVTITCRASQGISFWLAWYQQKPGKAPELLISAASSLQSGVPSRFSGSGSGTDFTLTISSLQPEDFATYYCLQAHSFPYTFGQGTKLEIK
# B16: 5.6.c3360 (antibody, V domains shown)
# VH: EVQVVESGGGLVKPGGSLRLSCAASGFSFSIYSMNWVRQAPGKGLEWVSSITGSSSYTNYAGSVKGRFTISRDNAKNSLYLQMNSLRADDTAVYYCARDGAVDTDIYYYGMDVWGQGTTVTVSS
# VL: B15 VL with S10F, V15I, G28D, F31S, E45T, S49Y, A51T, S53T, Y96R, K103Q
# B17: 5.6.c3412 (antibody, V domains shown)
# VH: QIQLVESGGGVVQPVRSLRLTCAASGFTFSQYGMHWVRQAPGKGLEWVAVISYDGTQKYYSDSVKGRFTISRDNAKNTLSLQMNGLRAEDTAVYYCAKGFLERNFDLWSGSYSDSGWRGPYYGMDFWGQGTTVIVSS
# VL: QTVVTQEPSFSVSPGGTVTITCALSSGSVSASLYPSWYQQTPGQAPRTLIYSTNTRSSGVPDRFSGSILGNKAALTITGAQADDESDYYCVLFMSSGIYVFGTGTKVTVL
# B18: 5.6.c3295 (antibody, V domains shown)
# VH: EVQLVESGGDLVQPGGSLRLSCAASGFTVNANYLGWVRQTPGKGLEWVSLIYSGSGSTYYADSVKGRFTLSRDSSKNTLFLHMNSLRPEDTAVYYCARAGGCGGDCYSYYFDYWGRGTLVTVSS
# VL: DIQMTQSPSTLSASVGDRVTITCRASQSISRWLAWYQQKPGKAPKLLIYRASSLQNGVPSRFSGSGSGTEFTLTISGLQPDDFGIYYCQEYSSRYTFGQGTQLEIK
# B19: 5.6.c3166 (antibody, V domains shown)
# VH: EVHLVESGGGLVQPGGSLRLSCAASGFSFNTHWMNWVRQAPGKGLEWVANIKQNGGEKYYVDSVKGRFTISRDNAKNTLFLQMNSLRGDDTAVYYCARGPPPAAPEDLFYNYTMDVWGQGTTVTVSS
# VL: EIVMTQSPATLSVSPGERATLSCRASQSVINHLAWYQQKPGQTPRLLIYGASTRATGIPARFSGSGSGTEFTLTISSLQSEDFAVYFCQQYNTWPPFTFGGGTKVEIK
# B20: 5.6.c3362 (antibody, V domains shown)
# VH: QLQLQQSGPGLVKPSETLSLTCNVSGGSISSSSTYSWGWIRQPPGKGLEWIGNIYYSGSTYYNPSLKSRVTISVDTSKNQFSLKLSSVTAADTAVYYCARSFRGPTGAFYYYSYAMDVWGRGTTVTVSS
# VL: SSELTQDPAVSVALGQTVRITCQGDSLRTYYASWYQQKPGQAPVLVIYGKKNRPSGIPDRFSGSSSGNTASLTITGAQAEDEADYYCNSQDSSGDLVLFGGGTKVTAL
# Experiments:
# [1] = target: T1, thermolysin-cleaved EBOV GP on …
# [2] = target: EBOV GP ectodomain residues 1-636 (GPec) (Zaire ebolavirus, strain  …, UniProt Q05320)
Binder,binding result [1],binding result [2]
B1,binds,binds
B2,binds,binds
B3,binds,binds
B4,binds,binds
B5,binds,binds
B6,binds,binds
B7,binds,binds
B8,binds,binds
B9,binds,binds
B10,binds,binds
B11,binds,binds
B12,binds,binds
B13,binds,binds
B14,binds,binds
B15,binds,binds
B16,binds,binds
B17,binds,binds
B18,binds,binds
B19,binds,binds
B20,binds,binds
